From publication PMC2532730 (Nucleic Acids Research, 2008)
Blank lines part the entries; values can stand above or below the binder they belong to.

Molecular target: BLM (Bloom's syndrome helicase), purified recombinant (human, UniProt P54132 1-1417)
Test: far-Western, overlay or dot blot

Chain of BLM (Bloom's syndrome helicase), purified recombinant (P54132 whole entry): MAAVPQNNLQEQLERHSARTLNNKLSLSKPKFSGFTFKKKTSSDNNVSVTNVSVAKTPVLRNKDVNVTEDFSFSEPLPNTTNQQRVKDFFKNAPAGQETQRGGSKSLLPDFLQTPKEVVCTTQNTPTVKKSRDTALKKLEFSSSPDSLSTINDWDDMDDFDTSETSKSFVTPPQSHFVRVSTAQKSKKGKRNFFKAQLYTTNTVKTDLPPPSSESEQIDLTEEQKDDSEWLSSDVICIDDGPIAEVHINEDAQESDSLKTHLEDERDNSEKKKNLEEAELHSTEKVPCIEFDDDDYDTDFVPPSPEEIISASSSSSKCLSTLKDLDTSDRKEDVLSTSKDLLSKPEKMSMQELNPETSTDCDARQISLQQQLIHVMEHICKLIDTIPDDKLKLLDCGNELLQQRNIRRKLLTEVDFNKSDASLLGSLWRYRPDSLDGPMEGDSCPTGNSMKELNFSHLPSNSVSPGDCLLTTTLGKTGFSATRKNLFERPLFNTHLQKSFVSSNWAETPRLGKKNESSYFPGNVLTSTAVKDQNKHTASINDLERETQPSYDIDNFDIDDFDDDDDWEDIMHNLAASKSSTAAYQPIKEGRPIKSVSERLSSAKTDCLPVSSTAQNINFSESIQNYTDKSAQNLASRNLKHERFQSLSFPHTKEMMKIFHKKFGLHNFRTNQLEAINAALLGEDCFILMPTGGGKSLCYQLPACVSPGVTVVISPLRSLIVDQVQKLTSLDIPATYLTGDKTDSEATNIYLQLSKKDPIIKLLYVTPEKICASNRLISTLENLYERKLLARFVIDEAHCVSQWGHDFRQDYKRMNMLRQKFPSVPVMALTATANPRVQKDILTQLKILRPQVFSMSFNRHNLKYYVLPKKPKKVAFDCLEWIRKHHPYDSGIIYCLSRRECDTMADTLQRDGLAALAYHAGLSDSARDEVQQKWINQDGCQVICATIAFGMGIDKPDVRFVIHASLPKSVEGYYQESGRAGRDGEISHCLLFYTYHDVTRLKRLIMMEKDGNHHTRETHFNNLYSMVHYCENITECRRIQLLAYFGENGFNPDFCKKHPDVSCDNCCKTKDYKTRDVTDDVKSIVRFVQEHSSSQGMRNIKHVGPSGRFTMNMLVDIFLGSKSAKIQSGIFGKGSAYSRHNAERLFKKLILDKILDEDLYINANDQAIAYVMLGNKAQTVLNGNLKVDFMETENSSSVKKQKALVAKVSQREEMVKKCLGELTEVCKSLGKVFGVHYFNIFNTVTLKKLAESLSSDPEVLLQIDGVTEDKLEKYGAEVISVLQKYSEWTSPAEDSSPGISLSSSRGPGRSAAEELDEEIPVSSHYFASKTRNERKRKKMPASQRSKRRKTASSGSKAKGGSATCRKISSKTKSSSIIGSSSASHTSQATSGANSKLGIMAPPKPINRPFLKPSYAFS

binding result: binds
B1: p12 subunit of the purified four-subunit hPOL δ enzyme (natural protein, human, UniProt Q9HCU8 1-107, looked up)
chain: MGRKRLITDSYPVVKRREGPAGHSKGELAPELGEEPQPRDEEEAELELLRQFDLAWQYGPCTGITRLQRWCRAKQMGLEPPPEVWQVLKTHPGDPRFQCSLWHLYPL

binding result: binds
B2: 6xHis-p12 protein (p12, smallest subunit of human DNA polymerase δ), purified recombinant (natural protein, UniProt Q9HCU8 1-107, looked up)
chain: B1 chain
